Results: patent publication US20190375846A1 (ULTRAHUMAN ONE, published 2019)

T1: human GITR-Fc (human, UniProt Q9Y5U5 26-161)
T1 construct: Recombinant GITR-Fc; also called hGITR-Fc; hGITR; not shown: Fc part
T1 sequence (looked up): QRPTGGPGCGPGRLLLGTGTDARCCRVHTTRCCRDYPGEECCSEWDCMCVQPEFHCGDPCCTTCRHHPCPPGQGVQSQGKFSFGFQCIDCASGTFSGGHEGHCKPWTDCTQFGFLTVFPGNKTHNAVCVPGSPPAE

T2: human GITR at the cell surface (human, UniProt Q9Y5U5 26-241)
T2 construct: whole, on cells; The cell type is named in the assay field of each row; also called human GITR+ cells; CHO-K1 human GITR+ cells
T2 sequence (looked up): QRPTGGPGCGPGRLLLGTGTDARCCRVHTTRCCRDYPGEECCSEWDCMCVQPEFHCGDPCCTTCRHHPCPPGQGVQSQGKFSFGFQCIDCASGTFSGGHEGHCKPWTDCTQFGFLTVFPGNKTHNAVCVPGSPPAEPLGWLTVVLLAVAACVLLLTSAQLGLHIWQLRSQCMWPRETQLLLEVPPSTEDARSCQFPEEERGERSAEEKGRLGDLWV


How the values were obtained:
human GITR-Fc [1] = target: T1, human GITR-Fc; assay: direct titration ELISA, coated human GITR-Fc, IgG1
Method: (§1) To coat Greiner Bio-One High bind ELISA plates, target proteins were diluted to 1 μg/ml in carbonate buffer and added at 100 μl per well, at 4° C., o/n. Coated plates were washed 3× with PBS pH7.4, blocked with 1% BSA in PBS (380 μl/well) for 1 hr at RT, then washed 3× with PBS-Tween 20 (PBST). GITR antibodies (100 μl/well; diluted in PBST) were then added and then incubated 1 hr at RT. Plates were then washed 3× with PBST and goat anti-human kappa chain-HRP added (100 μl/well) at RT, for 1 hr. Plates were then washed 3× with PBST and twice with PBS before the addition of 100 μl TMB per well. Reactions were stopped by adding 100 μl 2M H₂SO₄/well and OD was read on a plate reader at 450 nm. IgG binding analysis via ELISA on negatively charged biomolecular surfaces were performed as previously described (see Mouquet et al., 2010, Nature 467: 591-595).
Retention of GITR-binding function in the purified IgG1 proteins was first examined by titration in direct binding ELISA against human GITR-Fc. […] Importantly, the >100-fold loss of binding function in the VH2 IgG family further illustrated that the HCDR1 could not be fully germ-lined a priori to match the native sequence of the human germline HCDR1 found in the framework used for grafting (IGHV3-7).

[2] = target: T3, cynomolgus monkey GITR-Fc (cynomolgus monkey (Macaca fascicularis)); assay: direct titration ELISA on coated cyno GITR-Fc, IgG1 0.001-1 µg/ml, OD 450 nm
T3 construct: also called cyno GITR-Fc; cGITR-Fc
Method: as §1
The 17 purified IgGs described above were then tested for binding to human and cyno GITR-Fc in direct titration ELISA format.

[3] = target: T2, human GITR at the cell surface; assay: flow cytometry on CHO-K1 human GITR+ cells; competitor: soluble human GITRL
human GITR-Fc [4] = target: T1, human GITR-Fc; assay: HTRF competition: unlabelled IgG1 titrated 0.003-100 µg/ml against terbium-labelled VH1/VL1 IgG on biotinylated human GITR-Fc with SA-XL665, 665/615 ratio
Method: A competition HTRF assay was established to examine epitope competition against VH1/VL1 IgG by grafted and library-derived clones. The purified VH1/VL1 IgG was labelled with terbium using a labelling kit (CisBio) per the manufacturers instructions. The final reaction mix contained biotinylated human GITR-Fc, SA-XL665 (CisBio), terbium-labelled parental […], and competitor IgG of interest, prepared as described above, in a total reaction volume of 20 μl in 1× assay buffer [50 mM sodium phosphate, pH 7.5, 400 mM potassium fluoride, and 0.1% BSA (w/v)]. Reagents were added sequentially on a MiniTrak Liquid Handling Platform (Perkin-Elmer) into 384-well low-volume black plates (Nunc). Reactions proceeded for 1 h at room temperature, and plates were subsequently read on a plate reader with excitation at 340 nm and two emission readings at 615 nm (measuring input donor fluorescence from VH1-VL1-cryptate) and 665 nm (measuring output acceptor fluorescence from SAXL665). Readings were expressed as 665 nm/615 nm ratios.
To examine the competition of the library-derived clones with the unaltered, closest-germline grafted CDRs of VH1/VL1 IgG, an Homogeneous Time Resolved Fluorescence (HTRF) assay was established. This assay incorporated terbium-labelled VH1/VL1 IgG, Biotinylated hGITR-Fc and streptavidin-XL665, in solution-phase binding. […]

EC50 (human GITR-Fc [1]) [µg/mL] | EC50 (read off the curve) [2] [µg/mL] | fold reduction of binding signal in the presence of 10 µg/ml soluble GITRL [3] [fold] | IC50 (read off the curve) (human GITR-Fc [4]) [µg/mL] | Binder
≥ 0.004 | ~0.05 |  |  | chimeric anti-GITR IgG1 mVH/mVL (6C8 murine v-domains) (antibody, V domains shown, Full-length human IgG1, kappa; also called GITR-mVH/mVL; chimeric IgG) VH: QVTLKESGPGILKPSQTLSLTCSFSGFSLSTSGMGVGWIRQPSGKGLEWLAHIWWDDDKYYNPSLKSQLTISKDTSRNQVFLKITSVDTADAATYYCARTRRYFPFAYWGQGTLVTVSS VL: DIVMTQSQKFMSTSVGDRVSVTCKASQNVGTNVAWYQQKPGQSPKALIYSASYRYSGVPDRFTGSGSGTDFTLTINNVHSEDLAEYFCQQYNTDPLTFGAGTKLEIK
 |  | > 10 | ~1 | D-A6 IgG1 (antibody, V domains shown, Human IgG1) VH: EVQLVESGGGLVQPGGSLRLSCAASGFSLSTSGYGVGWVRQAPGKGLEWLAHIWWDDDKYYVDSVKGRFTISRDNAKNSLYLQMNSLRAEDTAVYYCARTRQYFPFAYWGQGTLVTVSS VL: EIVLTQSPATLSLSPGERATLSCRASQSVGSNLAWYQQKPGQAPRLLIYSASYRYTGIPARFSGSGSGTDFTLTISSLEPEDFAVYYCQQYSTDPLTFGGGTKVEIK
